IntAct's records for PubMed 26068852

B1: TRAF-interacting protein with FHA domain-containing protein A (Homo sapiens), Q96CG3 (parent)
chain: MTSFEDADTEETVTCLQMTVYHPGQLQCGIFQSISFNREKLPSSEVVKFGRNSNICHYTFQDKQVSRVQFSLQLFKKFNSSVLSFEIKNMSKKTNLIVDSRELGYLNKMDLPYRCMVRFGEYQFLMEKEDGESLEFFETQFILSPRSLLQENNWPPHRPIPEYGTYSLCSSQSSSPTEMDENES
partner: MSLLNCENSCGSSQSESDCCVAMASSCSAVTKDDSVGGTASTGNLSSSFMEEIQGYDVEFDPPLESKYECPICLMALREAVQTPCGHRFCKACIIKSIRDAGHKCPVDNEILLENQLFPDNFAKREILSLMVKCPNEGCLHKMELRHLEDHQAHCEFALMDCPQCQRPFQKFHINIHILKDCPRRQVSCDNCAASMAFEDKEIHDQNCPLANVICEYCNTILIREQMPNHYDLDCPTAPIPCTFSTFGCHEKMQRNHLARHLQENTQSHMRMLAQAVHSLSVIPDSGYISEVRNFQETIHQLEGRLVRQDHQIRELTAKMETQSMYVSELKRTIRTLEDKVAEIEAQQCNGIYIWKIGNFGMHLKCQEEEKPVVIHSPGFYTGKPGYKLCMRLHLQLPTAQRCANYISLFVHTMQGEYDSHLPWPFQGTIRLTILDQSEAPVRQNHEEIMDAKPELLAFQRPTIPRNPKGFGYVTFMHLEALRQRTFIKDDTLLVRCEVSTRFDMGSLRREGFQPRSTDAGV

Variants of: B1
Conditions: with traf6_human TRAF6, Q9Y4K3

Row | effect of a mutation on the interaction | Variant
1 | disrupting interaction strength | T9A
2 | disrupting interaction strength | G50E;S66A
3 | disrupting interaction strength | E178A
